Measurements from patent US20130071400A1, “LINGO binding molecules and Pharmaceutical Use Thereof” (NOVARTIS AG, priority 2006, published 2013).

T1: cell surface LINGO-1 in CHO-K1-hLINGO-1 cells (Homo sapiens, UniProt Q96FE5)
T1 construct: expressed in transfected cells
T1 sequence (Q96FE5 34-614 isoform Q96FE5-2): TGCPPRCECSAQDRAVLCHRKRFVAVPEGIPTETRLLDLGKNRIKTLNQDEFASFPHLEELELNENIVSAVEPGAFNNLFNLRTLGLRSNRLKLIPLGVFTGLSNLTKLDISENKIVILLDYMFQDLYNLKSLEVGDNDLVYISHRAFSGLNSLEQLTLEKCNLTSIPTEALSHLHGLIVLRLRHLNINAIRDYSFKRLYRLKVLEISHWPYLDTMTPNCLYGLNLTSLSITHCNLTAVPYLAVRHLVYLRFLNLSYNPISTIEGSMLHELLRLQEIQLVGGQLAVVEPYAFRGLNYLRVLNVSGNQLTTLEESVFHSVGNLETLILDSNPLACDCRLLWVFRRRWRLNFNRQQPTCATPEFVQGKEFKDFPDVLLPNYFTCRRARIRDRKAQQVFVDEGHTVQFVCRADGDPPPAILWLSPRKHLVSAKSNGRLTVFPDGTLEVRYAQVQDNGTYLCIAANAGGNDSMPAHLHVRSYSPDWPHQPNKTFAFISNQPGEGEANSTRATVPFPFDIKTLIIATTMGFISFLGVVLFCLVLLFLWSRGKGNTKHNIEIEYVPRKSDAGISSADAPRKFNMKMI


Tests used:
[1] = molecular target: T1, cell surface LINGO-1 in CHO-K1-hLINGO-1 cells; experiment: Downregulation of cell surface LINGO-1 (anti-V5 detection, TMB-ELISA); type: cell-based; details: 100 nM IgG4, 24 hrs at 37° C., CHO-K1-hLINGO-1 cells (FIG. 6A)
Protocol: A) Untransfected CHO-K1 or CHO-K1-hLINGO-1 cells are incubated at 37° C. for 24 hrs with 100 nM 4784, 4785 and 3207 and LINGO-1 detected at the cell surface by a further incubation at room temperature for 30 min with the anti-V5 antibody. The cells are fixed with 4% PFA, blocked with BSA and bound anti-V5 antibody detected using an anti-mouse-IgG (Fc specific)-POD conjugate that is subsequently developed using a 1-Step™ Turbo TMB ELISA kit. The absorbance at 450 nm is taken as a measure of the amount of LINGO-1 at the cell surface (mean of triplicates±STD). A very low level of anti-V5 antibody binding is observed to untransfected CHO-K1 cells. Incubation of CHO-K1-hLINGO-1 cells with anti-LINGO-1 antibodies but not the control IgG4 3207 result in a significant reduction in the amount of LINGO-1 at the cell surface **p<0.01, one-way ANOVA with a Holm-Sidak comparison to the absorbance following incubation with the control IgG4 3207.
To determine the effect of anti-LINGO-1 antibodies on the amount of cell surface LINGO-1, untransfected CHO-K1 or CHO-K1-hLINGO-1 cells (see Example 1) are incubated at 37° C. for 24 hrs with 100 nM 4784, 4785 or 3207 and cell surface LINGO-1 is subsequently detected with an anti-V5 antibody followed by an anti-mouse IgG (Fc specific)-POD conjugate developed with a 1-Step™ Turbo TMB-ELISA kit (Pierce) (FIG. 6A).

[2] = system: binding of LINGO-1 to NgR; experiment: AP-LINGO-1 binding assay (AP-LINGO-1 binding to NgR:SH-SY5Y cells); design: species or system rat; details: 2 μM Fab, 1 nM AP-LINGO-1; normalized to control Fab 3207; p<0.01 (FIG. 1)
Sequence of binding of LINGO-1 to NgR (as listed by the source): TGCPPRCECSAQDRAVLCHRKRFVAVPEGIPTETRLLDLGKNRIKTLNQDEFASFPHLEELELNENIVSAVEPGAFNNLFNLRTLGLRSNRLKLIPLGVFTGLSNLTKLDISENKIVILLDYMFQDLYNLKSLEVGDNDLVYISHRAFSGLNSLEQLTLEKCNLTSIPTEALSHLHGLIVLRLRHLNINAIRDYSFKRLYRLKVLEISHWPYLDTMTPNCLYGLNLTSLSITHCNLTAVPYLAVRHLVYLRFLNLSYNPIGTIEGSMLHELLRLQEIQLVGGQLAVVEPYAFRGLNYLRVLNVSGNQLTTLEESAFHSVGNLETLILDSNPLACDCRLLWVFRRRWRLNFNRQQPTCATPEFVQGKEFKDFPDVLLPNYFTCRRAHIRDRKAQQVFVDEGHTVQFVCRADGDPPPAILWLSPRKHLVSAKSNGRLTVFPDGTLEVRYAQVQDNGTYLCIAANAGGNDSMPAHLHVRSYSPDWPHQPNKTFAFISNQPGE
Protocol: NgR:SH-SY5Y cells in suspension are incubated with either 1 nM AP or AP-LINGO-1 in the absence or presence of 2 μM of the indicated anti-LINGO-1 Fab or anti-hen lysozyme Fab 3207. Bound AP activity on the cells is measured as absorbance at 405 nm after a 30 min incubation with 1-Step™ PNPP. The specific binding of AP-LINGO-1 is calculated as the difference between the total amount of AP-LINGO-1 binding and the amount of binding with AP alone. The mean percentage inhibition of specific binding (n=3, ±STD) is calculated as the percentile difference between the amount of specific binding of AP-LINGO-1 in the presence of Fab 3207 and the presence of an anti-LINGO-1 Fab.
The PCR product is cleaved with XhoI and XbaI and inserted into the respective sites of the vector APtag-5-NHIS (SEQ ID NO: 26) to generate APtag-5-NHIS-solrLINGO-1. The predicted protein product is the majority of the rat LINGO-1 ectodomain fused at the N-terminus to residues 23-511 of human placental alkaline phosphatase via a 3 amino acid residue linker. […] AP activity of the concentrated supernatant is measured using 1-Step™ PNPP (Pierce) as change in absorbance at 405 nm over time and transformed to a concentration using the following equation (applies for a 96 well plate format with 200 μl PNPP/well): […]

Molecule	amount of cell surface LINGO-1 (absorbance at 450 nm) [1]	inhibition of specific AP-LINGO-1 binding to NgR:SH-SY5Y cells [2]
IgG4 4785: monoclonal human anti-LINGO-1 IgG4 antibody; VL SEQ ID NO: 6, VH SEQ ID NO: 7 (antibody, V domains shown, IgG4; 4785 VH; 4785 VL) VH: QVQLQQSGPGLVKPSQTLSLTCAISGDSVSDNSAAWSWIRQSPGRGLEWLGLIYLRSKWDNDYAVSVKSRITINPDTSKNQFSLQLNSVTPEDTAVYYCARTGRADEFDVWGQGTLVTVSS VL: DIVLTQPPSVSGAPGQRVTISCSGSSSNIGNNYVSWYQQLPGTAPKLLISRNSKRPSGVPDRFSGSKSGTSASLAITGLQSEDEADYYCSTYDTFSIVFGGGTKLTVLG	significantly downregulate	significantly inhibit
IgG4 4784: monoclonal human anti-LINGO-1 IgG4 antibody; VL SEQ ID NO: 4, VH SEQ ID NO: 5 (antibody, V domains shown, IgG4; 4784 VH; 4784 VL) VH: QVQLKESGPALVKPTQTLTLTCTFSGFSLSSSGVGVGWIRQPPGKALEWLAHIGSDDDKYYSTSLKTRLTISKDTSKNQVVLTMTNMDPVDTATYYCARNQQYGDGYPGYFDYWGQGTLVTVSS VL: DIELTQPPSVSVAPGQTARISCSGDNIGNYYVYWYQQKPGQAPVLVIYEDTNRPSGIPERFSGSNSGNTATLTISGTQAEDEADYYCQSYDNLHEQVFGGGTKLTVLG	significantly downregulate	significantly inhibit
